Reference: patent US20220226463A1 (NATIONAL CHENG KUNG UNIVERSITY, published 2022)

Molecular target: T1, TRAF6 (UniProt Q9Y4K3 1-522)
T1 sequence: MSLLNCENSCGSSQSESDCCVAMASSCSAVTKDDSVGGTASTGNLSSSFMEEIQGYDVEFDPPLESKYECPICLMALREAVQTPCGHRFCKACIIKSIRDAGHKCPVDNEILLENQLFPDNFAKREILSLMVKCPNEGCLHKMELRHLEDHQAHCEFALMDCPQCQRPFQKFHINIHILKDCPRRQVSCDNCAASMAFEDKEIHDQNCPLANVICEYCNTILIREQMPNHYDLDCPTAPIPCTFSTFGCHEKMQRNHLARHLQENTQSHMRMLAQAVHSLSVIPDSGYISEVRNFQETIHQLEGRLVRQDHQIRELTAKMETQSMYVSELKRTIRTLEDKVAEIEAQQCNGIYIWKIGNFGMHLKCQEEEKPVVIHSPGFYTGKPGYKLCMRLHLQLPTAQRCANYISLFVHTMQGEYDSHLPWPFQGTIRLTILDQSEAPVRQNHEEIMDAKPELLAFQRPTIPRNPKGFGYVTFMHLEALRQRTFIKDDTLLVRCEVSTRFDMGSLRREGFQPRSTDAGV
Assay: co-immunoprecipitation and western blot, HEK293T cells (FIG. 3A)

B1: wild-type NS1 (NS1-Myc/His), nonstructural protein 1 of influenza virus strain A/PR/8 (PR8), C-terminal Myc-His tag (other)
chain: MDPNTVSSFQVDCFLWHVRKRVADQELGDAPFLDRLRRDQKSLRGRGSTLGLDIETATRAGKQIVERILKEESDEALKMTMASVPASRYLTDMTLEEMSRDWSMLIPKQKVAGPLCIRMDQAIMDKNIILKANFSVIFDRLETLILLRAFTEEGAIVGEISPLPSLPGHTAEDVKNAVGVLIGGLEWNDNTVRVSETLQRFAWRSSNENGRPPLTPKQKREMAGTIRSEV
- binding result: no binding
